Measurements as given in patent US12129294B2, “Methods of treatment of diseases in which IL-13 activity is detrimental using anti-IL-13 antibodies” (AbbVie Inc., priority 2016, dated 2024).
Several values for one entry are separate records, joined by “and”; a condition that tells them apart may be missing. Identical values can stand only once. Entries after “also recorded” stand apart in the source; their conditions may differ.

How the values were obtained:
[1] = system: subjects with symptomatic eosinophilic esophagitis (EoE); assay: Phase 2 study in EoE patients: EoE endoscopic reference score (EREF); format: in vivo, human; conditions: treatment with RPC4046
Procedure: (§1) Safety was monitored throughout the study. […] The study was powered for the primary endpoint.
In further analysis, the mean eosinophilic esophagitis endoscopic reference score (EREF) in subjects at week 16 was analyzed for placebo and the two treatment arms. The EREF score is an additional secondary endpoint that is evaluated based on the presence of inflammatory markers (e.g., being positive for edema, exudates and/or furrows) and/or remodeling markers (e.g., being positive for fixed rings and/or strictures).
The results of the EREF study was further inspected by analyzing composite EREF score for inflammatory markers or remodeling markers.

[2] = system: subjects with symptomatic eosinophilic esophagitis (EoE); assay: Phase 2 study in EoE patients: clinician's global assessment of disease severity; format: in vivo, human; conditions: for clinician's global assessment of disease severity, Mean change / clinician's global assessment of disease severity, LSMD versus placebo: Change to Week 16; for clinician's global assessment of disease severity, LSMD versus placebo: ANCOVA
Description: as §1

other cytokines = assay: Binding of the antibody to other cytokines
[3] = system: subjects with symptomatic eosinophilic esophagitis (EoE); assay: Phase 2 study in EoE patients: subject's global impression; format: in vivo, human; conditions: therapy arm; week 16
Description: as §1

[4] = system: subjects with symptomatic eosinophilic esophagitis (EoE); assay: Phase 2 study in EoE patients: peak esophageal eosinophil count; format: in vivo, human; conditions: for peak esophageal eosinophil count, Mean change / peak esophageal eosinophil count, LSMD versus placebo: Change to Week 16; for peak esophageal eosinophil count, LSMD versus placebo: ANCOVA
Description: North America and Switzerland. […] Safety was monitored throughout the study. […] The study was powered for the primary endpoint. […] To maximize consistency, biopsies were obtained from proximal and distal esophagus (i.e., 4 biopsy fragments from each level) at screening. Additional biopsies from mid-esophagus was encouraged and effort was made to obtain subsequent biopsies from the same levels. The biopsies were blinded and read by single central pathologist. To be eligible for trial, subjects were evaluated for peak eosinophil count of ≥15/HPF, from 2 of 3 (proximal, mid-, and/or distal) levels of the esophagus at the screening endoscopy. Next, the effectiveness of RPC4046 (over placebo) in lowering peak esophageal eosinophil count in EoE subjects at week 16 was analyzed.

[5] = system: subjects with symptomatic eosinophilic esophagitis (EoE); assay: Phase 2 study in EoE patients: mean esophageal eosinophil count in the 5 most inflamed HPF of esophageal biopsies; format: in vivo, human; conditions: for mean esophageal eosinophil count (EEOC Mean BL): baseline; for mean change from baseline in mean esophageal eosinophil count: baseline to week 16; for mean esophageal eosinophil count (EEOC Mean post): post treatment (week 16)
Description: as §1
Additionally, various safety and tolerability endpoints are also measurable.
To maximize consistency, biopsies were obtained from proximal and distal esophagus (i.e., 4 biopsy fragments from each level) at screening. Additional biopsies from mid-esophagus was encouraged and effort was made to obtain subsequent biopsies from the same levels. The biopsies were blinded and read by single central pathologist. To be eligible for trial, subjects were evaluated for peak eosinophil count of ≥15/HPF, from 2 of 3 (proximal, mid-, and/or distal) levels of the esophagus at the screening endoscopy.

[6] = system: subjects with symptomatic eosinophilic esophagitis (EoE); assay: Phase 2 study in EoE patients: subject's global assessment of disease severity; format: in vivo, human; conditions: for subject's global assessment of disease severity, Mean change / subject's global assessment of disease severity, LSMD versus placebo: Change to Week 16; for subject's global assessment of disease severity, LSMD versus placebo: ANCOVA
Procedure: North America and Switzerland. […] Safety was monitored throughout the study. […] The study was powered for the primary endpoint. […] Still further, the effectiveness of RPC4046 (over placebo) in lowering a subject's global assessment of disease severity at week 16 was analyzed.

[7] = system: subjects with symptomatic eosinophilic esophagitis (EoE); assay: Phase 2 study in EoE patients: safety, treatment-emergent adverse events (TEAE)
Procedure: A double-blind, placebo-controlled, dose-finding study was conducted at 40 canters in North America and Switzerland. Patients with EoE (n=100, aged 18-65) were randomized to 180 mg (low dose; LD) or 360 mg (high dose; HD) RPC4046 or PBO (1:1:1) in a Day 1 intravenous loading dose, followed by weekly subcutaneous doses for 15 weeks. […] Safety was monitored throughout the study.
Additionally, various safety and tolerability endpoints are also measurable. Safety and tolerability parameters are evaluated by the incidence, severity, and relationship of adverse events (AEs), serious AEs (SAEs), clinical laboratory abnormalities, changes in vital signs, physical examination abnormalities, and the presence of anti-drug antibodies.

human type IL-13 = human type IL-13 (Homo sapiens, UniProt P35225, Q144R); assay: Binding of the antibody to IL-13
human type IL-13, sequence (P35225 15-146 Q144R limits assumed): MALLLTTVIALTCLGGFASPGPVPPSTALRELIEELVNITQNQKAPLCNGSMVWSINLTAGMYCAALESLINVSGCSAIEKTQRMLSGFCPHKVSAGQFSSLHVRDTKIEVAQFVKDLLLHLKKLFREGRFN

[8] = 180 mg (N = 31), safety population
[9] = 360 mg (N = 34), safety population

B1: RPC4046: recombinant humanized, high-affinity, selective anti-IL-13 monoclonal antibody; heavy chain variable region SEQ ID NO: 2, light chain variable region SEQ ID NO: 3 (antibody, V domains shown)
VH: EVTLRESGPGLVKPTQTLTLTCTLYGFSLSTSDMGVDWIRQPPGKGLEWLAHIWWDDVKRYNPALKSRLTISKDTSKNQVVLKLTSVDPVDTATYYCARTVSSGYIYYAMDYWGQGTLVTVSS
VL: DIQMTQSPSSLSASVGDRVTISCRASQDIRNYLNWYQQKPGKAPKLLIFYTSKLHSGVPSRFSGSGSGTDYTLTISSLQPEDIATYYCQQGNTLPLTFGGGTKVEIK
- EREF total score at week 16 [1]: net lowering of EREF score
- clinician's global assessment of disease severity, Mean ([2]; 180 mg, Baseline): 6.7
- clinician's global assessment of disease severity, Median ([2]; 180 mg, Baseline): 7.0
- clinician's global assessment of disease severity, Mean change ([2]; 180 mg): −3.6
- clinician's global assessment of disease severity, LSMD versus placebo ([2]; 180 mg): −1.7
- clinician's global assessment of disease severity, Mean ([2]; 180 mg, Week 16): 2.9
- clinician's global assessment of disease severity, Median ([2]; 180 mg, Week 16): 2.0
- clinician's global assessment of disease severity, Mean ([2]; 360 mg, Baseline): 6.1
- clinician's global assessment of disease severity, Median ([2]; 360 mg, Baseline): 6.0
- clinician's global assessment of disease severity, Mean change ([2]; 360 mg): −2.9
- clinician's global assessment of disease severity, LSMD versus placebo ([2]; 360 mg): −1.3
- clinician's global assessment of disease severity, Mean ([2]; 360 mg, Week 16): 3.2
- clinician's global assessment of disease severity, Median ([2]; 360 mg, Week 16): 3.0
- clinician's global assessment of disease severity at week 16 ([2]; both the low and the high dose, week 16): achieved statistical significance
- binding to other cytokines (other cytokines): does not bind to other cytokines
- subjects responding as feeling a lot better or a little better compared to placebo [3]: larger number of subjects
- peak esophageal eosinophil count, Mean ([4]; 180 mg, Baseline): 131.9 cells/hpf
- peak esophageal eosinophil count, Median ([4]; 180 mg, Baseline): 113.0 cells/hpf
- peak esophageal eosinophil count, Mean change ([4]; 180 mg): −106.6 cells/hpf
- peak esophageal eosinophil count, LSMD versus placebo ([4]; 180 mg): −80.6 cells/hpf
- peak esophageal eosinophil count, Mean ([4]; 180 mg, Week 16): 28.9 cells/hpf
- peak esophageal eosinophil count, Median ([4]; 180 mg, Week 16): 15.0 cells/hpf
- peak esophageal eosinophil count, Mean ([4]; 360 mg, Baseline): 139.4 cells/hpf
- peak esophageal eosinophil count, Median ([4]; 360 mg, Baseline): 132.0 cells/hpf
- peak esophageal eosinophil count, Mean change ([4]; 360 mg): −111.3 cells/hpf
- peak esophageal eosinophil count, LSMD versus placebo ([4]; 360 mg): −79.8 cells/hpf
- peak esophageal eosinophil count, Mean ([4]; 360 mg, Week 16): 31.3 cells/hpf
- peak esophageal eosinophil count, Median ([4]; 360 mg, Week 16): 15.0 cells/hpf
- lowering of esophageal eosinophil counts over placebo at week 16 ([4]; both low (180 mg) and high dose (360 mg)): achieved statistical significance
- mean esophageal eosinophil count (EEOC Mean BL) ([5]; 180 mg (LD)): 116.6 cells/hpf and 116.7 cells/hpf
- mean change from baseline in mean esophageal eosinophil count ([5]; 180 mg (LD)): −94.8 cells/hpf
- mean esophageal eosinophil count (EEOC Mean post) ([5]; 180 mg): 24.8 cells/hpf
- mean esophageal eosinophil count (EEOC Mean BL) ([5]; 360 mg (HD)): 122.6 cells/hpf
- mean change from baseline in mean esophageal eosinophil count ([5]; 360 mg (HD)): −99.9 cells/hpf
- mean esophageal eosinophil count (EEOC Mean post) ([5]; 360 mg): 25.5 cells/hpf
- mean esophageal eosinophil count at week 16 compared to the controls ([5]; both low dose (180 mg) and high dose (360 mg)): statistically significant reduction
- subject's global assessment of disease severity, Mean ([6]; 180 mg, Baseline): 5.0
- subject's global assessment of disease severity, Median ([6]; 180 mg, Baseline): 5.0
- subject's global assessment of disease severity, Mean change ([6]; 180 mg): −2.0
- subject's global assessment of disease severity, LSMD versus placebo ([6]; 180 mg): −0.9
- subject's global assessment of disease severity, Mean ([6]; 180 mg, Week 16): 2.8
- subject's global assessment of disease severity, Median ([6]; 180 mg, Week 16): 3.0
- subject's global assessment of disease severity, Mean ([6]; 360 mg, Baseline): 5.4
- subject's global assessment of disease severity, Median ([6]; 360 mg, Baseline): 5.0
- subject's global assessment of disease severity, Mean change ([6]; 360 mg): −2.8
- subject's global assessment of disease severity, LSMD versus placebo ([6]; 360 mg): −1.3
- subject's global assessment of disease severity, Mean ([6]; 360 mg, Week 16): 2.5
- subject's global assessment of disease severity, Median ([6]; 360 mg, Week 16): 2.0
- subject's global assessment of disease severity at week 16 over placebo ([6]; treatment arm, 180 mg and 360 mg, week 16): dose-dependent reduction
- Number of subjects experiencing Death related to study drug [7, 8]: 0 n
- Number of subjects experiencing ≥1 TEAE [7, 8]: 20 n
- Number of subjects experiencing ≥1 TEAE leading to study drug d/c [7, 8]: 1 n
- Number of subjects experiencing ≥1 TEAE with fatal outcome [7, 8]: 0 n
- Number of subjects experiencing ≥1 moderate or severe TEAE [7, 8]: 7 n
- Number of subjects experiencing ≥1 possible, probable, or related TEAE [7, 8]: 11 n
- Number of subjects experiencing ≥1 related TEAE [7, 8]: 3 n
- Number of subjects experiencing ≥1 related serious TEAE [7, 8]: 0 n
- Number of subjects experiencing ≥1 serious TEAE [7, 8]: 0 n
- Number of subjects experiencing ≥1 severe TEAE [7, 8]: 2 n
- Subjects experiencing ≥1 TEAE [7, 8]: (64.5) %
- Subjects experiencing ≥1 TEAE leading to study drug d/c [7, 8]: (3.2) %
- Subjects experiencing ≥1 moderate or severe TEAE [7, 8]: (22.6) %
- Subjects experiencing ≥1 possible, probable, or related TEAE [7, 8]: (35.5) %
- Subjects experiencing ≥1 related TEAE [7, 8]: (9.7) %
- Subjects experiencing ≥1 severe TEAE [7, 8]: (6.5) %
- safety and tolerability ([7]; 180 mg and 360 mg, 16-week treatment): well-tolerated with a favorable safety profile; also recorded: generally safe and well-tolerated
- Number of subjects experiencing Death related to study drug [7, 9]: 0 n
- Number of subjects experiencing ≥1 TEAE [7, 9]: 29 n
- Number of subjects experiencing ≥1 TEAE leading to study drug d/c [7, 9]: 3 n
- Number of subjects experiencing ≥1 TEAE with fatal outcome [7, 9]: 0 n
- Number of subjects experiencing ≥1 moderate or severe TEAE [7, 9]: 11 n
- Number of subjects experiencing ≥1 possible, probable, or related TEAE [7, 9]: 18 n
- Number of subjects experiencing ≥1 related TEAE [7, 9]: 5 n
- Number of subjects experiencing ≥1 related serious TEAE [7, 9]: 0 n
- Number of subjects experiencing ≥1 serious TEAE [7, 9]: 1 n
- Number of subjects experiencing ≥1 severe TEAE [7, 9]: 2 n
- Subjects experiencing ≥1 TEAE [7, 9]: (85.3) %
- Subjects experiencing ≥1 TEAE leading to study drug d/c [7, 9]: (8.8) %
- Subjects experiencing ≥1 moderate or severe TEAE [7, 9]: (32.4) %
- Subjects experiencing ≥1 possible, probable, or related TEAE [7, 9]: (52.9) %
- Subjects experiencing ≥1 related TEAE [7, 9]: (14.7) %
- Subjects experiencing ≥1 serious TEAE [7, 9]: (2.9) %
- Subjects experiencing ≥1 severe TEAE [7, 9]: (5.9) %
- most-frequently reported adverse events ([7]; phase 2 study): headache, URI, arthralgia, nasopharyngitis, sinusitis, abdominal pain and oropharyngeal pain
- infusional hypersensitivity events ([7]; treatment groups): no reported instances of infusional hypersensitivity events
- binding to human type IL-13 (human type IL-13): binds to human type IL-13
- selectivity for IL-13 (human type IL-13): highly selective for IL-13
